According to the DeepSol protein solubility set:

Assay: soluble on expression in E. coli; label from the status in PepcDB or PDB records

Sequence | soluble on expression in E. coli
MHIMVTQGGLMSLSIVHTRAALGVNAPPITVEVHISKGLPGLTMVGLPETTVKEARDRVRSAIINSGYEYPAKKITINLAPADLPKEGGRYDLPIAIALLAASEQLTANKLDEYELVGELALTGALRGVPGAISSATEAIKSGRKIIVAKDNEDEVGLINGEGCLIADHLQAVCAFLEGKHALERPKPTDAVSRALQHDLSDVIGQEQGKRGLEITAAGGHNLLLIGPPGTGKTMLASRINGLLPDLSNEEALESAAILSLVNAESVQKQWRQRPFRSPHHSASLTAMVGGGAIPGPGEISLAHNGVLFLDELPEFERRTLDALREPIESGQIHLSRTRAKITYPARFQLVAAMNPSPTGHYQGNHNRCTPEQTLRYLNRLSGPFLDRFDLSLEIPLPPPGILSKTVVPGESSATVKQRVMAARERQFKRQNKLNAWLDSPEIRQFCKLESEDAMWLEGTLIHLGLSIRAWQRLLKVARTIADIDQSDIITRQHLQEAVSYRAIDRLLIHLQKLLT | not soluble
MHIRLTLPFYIYPFHFFRGSKMVKIPKSHPRYWSLLYREKIIRGMEEGITAKAGLIAHGRGEAFDYLIGERTIPPAEEAMKVAVAKLLLANHPVISVNGNVAALVPRETVELAKVTRAKLEVNLFYRTEERVKKIAEVLKKTGAKEVLGLNPTKRIPGLESERGKVEEDGIWKADVVLVPLEDGDRTEALVRMGKFVITVDLNPLSRSARMANVTIVDNIIRAYPRMIELAKEMRDYSREELEEIVNNYDNNKILSEVLLHIRRRLEELAKEGLEHHHHHH | not soluble
MHITLRQLEVFAEVLKSGSTTQASVMLALSQSAVSAALTDLEGQLGVQLFDRVGKRLVVNEHGRLLYPRALALLEQAVEIEQLFREDNGAIRIYASSTIGNYILPAVIARYRHDYPQLPIELSVGNSQDVMQAVLDFRVDIGFIEGPCHSTEIISEPWLEDELVVFAAPTSPLARGPVTLEQLAAAPWILRERGSGTRDIVDYLLLSHLPKFEMAMELGNSEAIKHAVRHGLGISCLSRRVIEDQLQAGTLSEVAVPLPRLMRTLWRIHHRQKHLSNALRRFLDYCDPANVPR | not soluble
MHKKLNPKSMKRENKKMVLRYLIESGPHSRVEIARKTGLAQSAIWRIIEELVNEGLVEEKGTATGRRRKAVTYGPTRSFITSIIYNVEVLETLVAVGFLDGAWRIIERFSTPKDFDEFKQRVTSSYENILKSHVLNKNISKVVFSLPGIVNTESKFLIHAPNLGWRNIDFRREFGNLDLEVLVENDSNLSLLAEEFFSQDVKESDVAFFLYFGEGIGGAISVNGKIVRGENFAAGEIGHVVLDVKNGKEVEEFLSISKLVERMEKFVELQGESLDEKFRYIKRLWFSGEKNVKETMEEFLQHVAVVLKNIIYFLNPGVIVLGGVVNDLWDTFGSFIKRELEKITDREIANVLIRDTIFKEISPSLVGGNVLAIEEFLRQIT | not soluble
MHKPCAVIPVYNHETAVPAVVEVLLARGLPCVLVDDASSPQCAAVLEQLAGLDQVFLIRLAINQGKGGAVMAGLREAAQLGFSHALQVDADGQHDLTDVDNFIQHSQAHPEALVCGYPQYDASVPKGRLYARYLTHVWVWINSLSLQIPDSMCGFRVYPLPPTLALLDSVQLGRRMDFDPEILVRLAWRNQPMRWLPTRVHYPQDGLSHFRLFHDNALISKMHAKLFFGMLARLPLILWRRWRPLEHHHHHH | not soluble
MHLPQMGYDRAITVFSPDGRLFQVEYAREAVKRGATAIGIKCKEGVILIADKRVGSKLLEKDTIEKIYKIDEHICAATSGLVADARVLIDRARIEAQINRLTYDIPITVKELAKKICDFKQQYTQYGGVRPFGVSLLIAGVNEVPKLYETDPSGALLEYKATAIGMGRMAVTEFFEKEYRDDLSFDDAMVLGLVAMGLSIESELVPENIEVGYVKVDDRTFKEVSPEELKPYVERANERIRELLKK | soluble
MHLSSSLLLVAAALFALPDGTFECATNGLCGYQPSCAAYSQPRPSCGCASSYGCGSYGCYRLRARGAKSYQPKRGRSRVTVGGSSSEEAREVLRQRMAMERVRRKEQLTSSEELDLVSPSVLRNSKSEQPINPDRAFYECCIDRKLPDACLSKCSFGAFTKPTLQAMYFKQDPCPLDAMKEMQFCAAQGRDHRDCCARNGVTTTLAGPKCLSFCDQRLGRNQQLDMSYVPCFDRFESMKSCFWHDMTRYYKRV | not soluble
MHMEQDVNAALRPAYRHRYLQKGHHHSRNAVVDHQELTEKLNRLTSTSSLGSSLPSLSSLHSNSSIGTMPSAKIGDGSTSSLPMSSAKPMSTQTSEPQLPDVPEPNESLHNKTIDEFQKDQEKCDRLKARKAELEMRLRQKMQELKDVCVEEGDITGEMPVEINDVVLPGDDFPRLKRRVGTAYSIPDELIKADKADKMSQLETDVELHRRIVAAASRLATDKNTNKSVRKKRQKDLQAARLRLNRLEQGLQQMRHSASKPDISSLTSDSSNSWTASNSSGPMLTMAMTKSCPTTPRGSVPDLRNGLDDEKDEFDENVEDRVSRRAPSAISRHSLSQRYSGVSSSSTSSGSDSMGLGLPPRPTSRKSQQQQTTPFDDQLDNPMICEIPPPPSSAAAHPLYENVGYRSTSYRSSYRQAHYPTIQDEHTQRKRAQSAHSISTDNGATGRTSTYSVPLNDAAQKFREYDYDDEEDSTPTMDLPSHLINVRRLTSSISCQAGFATASLDRRYSKLNGGRLSSGGGGSDDVVRQNVTTRITTFPVATSAATVILSGKPYSASELPRFQPPPPVARVTHMPRGSLPPYSSATMGAQSPAPPPNGKLPTNPQMEALLSYYKQQQQQQHQQQSRSAPSQQPKTATIV | not soluble
MHMKLDDITYMNPWWEGKEDYHVKQWEKQKVHWEPKWIREISLKPFSLNFVLGPRQVGKTTGIKLLIQKILEENPPESVLYLNLEILPTYRELLDIIREFQELKKEEGIKTGYIFLDEASSLEGWWRGVKPLIDSGLLENDVITVTGSSSLRVRRDIELFPGRRGGGKTLEVMPLSFPEYARVMGLKKHKLEGSKVIKLFEKYIQTGGFPGSINGFPMEDLLGAYIGEFVRFGKSLEIAKEIFSALIRSAPSATSFRALAEMTSGYSYKVVQDYIEFFRDLYILGMAYLKQGNQVMYRREKKFFFRDPLLAKLFSLWSGTEIGKDALYEWIVQEHVFRKFGEIHYFRNSYEIDIIASDMKIEVKAGKAHRKYPRGVKVLEKEDVPFFLIELYNEDC | soluble
MHRASLICRLASPSRINAIRNASSGKSHISASTLVQHRNQSVAAAVKHEPFLNGSSSIYIEQMYEAWLQDPSSVHTSWDAYFRNVEAGAGPGQAFQAPPATAYAGALGVSPAAAQVTTSSAPATRLDTNASVQSISDHLKIQLLIRSYQTRGHNIADLDPLGINSADLDDTIPPELELSFYGLGERDLDREFLLPPTTFISEKKSLTLREILQRLKDIYCTSTGVEYMHLNNLEQQDWIRRRFEAPRVTELSHDQKKVLFKRLIRSTKFEEFLAKKWPSEKRFGLEGCEVLIPAMKQVIDSSSTLGVDSFVIGMPHRGRLNVLANVCRQPLATILSQFSTLEPADEGSGDVKYHLGVCIERLNRQSQKNVKIAVVANPSHLEAVDPVVMGKVRAEAFYAGDEKCDRTMAILLHGDAAFAGQGVVLETFNLDDLPSYTTHGAIHIVVNNQIGFTTDPRSSRSSPYCTDVGRVVGCPIFHVNVDDPEAVMHVCNVAADWRKTFKKDVIVDLVCYRRHGHNELDEPMFTQPLMYQRIKQTKTALEKYQEKILNEGVANEQYVKEELTKYGSILEDAYENAQKVTYVRNRDWLDSPWDDFFKKRDPLKLPSTGIEQENIEQIIGKFSQYPEGFNLHRGLERTLKGRQQMLKDNSLDWACGEALAFGSLLKEGIHVRLSGQDVQRGTFSHRHHVLHDQKVDQKIYNPLNDLSEGQGEYTVCNSSLSEYAVLGFELGYSMVDPNSLVIWEAQFGDFSNTAQCIIDQFISSGQSKWIRQSGLVMLLPHGYEGMGPEHSSARPERFLQMCNEDDEIDLEKIAFEGTFEAQQLHDTNWIVANCTTPANIYHLLRRQVTMPFRKPAVVFSPKSLLRHPMARSPVEDFQSGSNFQRVIPETGAPSQNPPDVKRVVFCTGKVYYDMVAARKHVGKENDVALVRVEQLSPFPYDLVQQECRKYQGAEILWAQEEHKNMGAWSFVQPRINSLLSIDGRATKYAGRLPSSSPATGNKFTHMQEQKEMMSKVFGVPKSKLEGFKA | not soluble
MHRTTRIKITELNPHLMCVLCGGYFIDATTIIECLHSFCKTCIVRYLETSKYCPICDVQVHKTRPLLNIRSDKTLQDIVYKLVPGLFKNEMKRRRDFYAAHPSADAAN | soluble
MHSDEEIFKDTTTKALLQLLKKDIDFHEYCYQEIFPRGKEIKMNDNKNFKIYLVESGYFAYCLKNEYGDFGIISFVGGEIAINLIPLIKEEPEDAFLRCLTQVRCWVLDPDFVGRVLDENNQKAKFLLSNLLYTRKVYFKASKRTFMKKELRIRACLKEIGLYMGRVTKDKDFILPDEINNSILAQYANTTREYTNIIVLKLRKEGILDDSHKPWVIKKIDEL | not soluble
MHSGAYFFYAAPRAGTAGKQAMPIEGIDYRLVFASDVNPRDGLGLECWRGEQPLFEVFRDDVGRRFVVNLFASDVPLELLEAIIPTARRELGDFPRRSASRGVAKPG | soluble
MHSLDSYFQRTTAPKSAAQERREEFHEKVMRSADYIADKFVETVRPLVDEVADKLQSEMPEDMEGTAKRRLICELSRRFGVSISAFK | not soluble
MIADDPHLELRLAASERDLRAAQRLRYTVFVEELGGDGDLVDHAERLERDEFDDLCDHLLLIDRRRDAAALEDVVGVYRLLPGERAAGAGRFYCDSEYDLDPLRASGRRVLELGRSCVHPDYRGGAAVFLLWSGLADYALAQRTELLFGVASFHGTDIEALAEPLSYLHAFHLAPEELRVRARSEGGQRMDLIPPERIDRRAAMLAMPPLIKAYLRLGGVVGEGAWIDRAFNTTDVCLLMDTARMSARHRDFYARRTVSAE | not soluble
MIAITGASGQLGRLVIAQLLEKVPASDIVALVRDVNKVADLSAKGVQVKAADYNQPEALAFALQGVDKVLLISSSEVGQRAAQHRNVIEAAVKAGVKLVAYTSLLHADKSPLALAEEHRQTEALLKDSGLPHVLLRNGWYTENYAASIPAALEHGVFIGSAGEGKITSATREDFAAAAVAVLTQEGQAGKVYELAGDEPYTLVELAAEISKQSGKSIGYQNLSGAEFTAALVSAGLPDVFAQIIADSDVGASKGGLFDGGKHLSQLIGRPTTPLSAVVKATLKLEHHHHHH | not soluble
MIAKISHGSSLYGVLAYNQLKVDERHADVLFTSRIIEPQGDNPYTIGHLSRSFGDYLTANRKTEKPVLHISLNPDPKDCLSEERFVSLAEEYMRRMGFGDQPYIVYRHNDIGREHLHIVSVRVDETGRAISDSYEHGRSMKVCRELERQFGLVLATPKQWKEGLPLSPVGYGDGNLKGQLAGVIRPIAREWRFRTLGEYRAVLSLYGITVDEVKGEYGGREYHGLTYSATDREGNKIGKPFKSSVFGKETGVAALERRMHNAAAWEKTHKEVAAATAGKVAAAMQTAGHDRAQFERELMRQGIGVVFRQNETGRIYGATFIDHAAKAVFNGSRLGKEFSAGVFNDLFAGQEGIHLPQPSAEVEHPTRQQEHTDISQWDGQDTGYRPDHKDGTTQNVAAAFNLFAPVPGGASGDQPVPLRKRKKKRKYGRQQLEHHHHHH | not soluble
MIALHFGAGNIGRGFIGALLHHSGYDVVFADVNETMVSLLNEKKEYTVELAEEGRSSEIIGPVSAINSGSQTEELYRLMNEAALITTAVGPNVLKLIAPSIAEGLRRRNTANTLNIIACENMIGGSSFLKKEIYSHLTEAEQKSVSETLGFPNSAVDRIVPIQHHEDPLKVSVEPFFEWVIDESGFKGKTPVINGALFVDDLTPYIERKLFTVNTGHAVTAYVGYQRGLKTVKEAIDHPEIRRVVHSALLETGDYLVKSYGFKQTEHEQYIKNQRSLLKSFHFGRCDPRSEVTSQKTGRKCRLVGPAKKIKEPNALAEGIAAALRFDFTGDPEAVELQALIEEKDTAAYFK | not soluble
